Target: the molecule itself
Experiment: SEC-MALS

B1: MBP-EBOV NP 1-367 (domain or fragment)
chain: MDSRPQKIWMAPSLTESDMDYHKILTAGLSVQQGIVRQRVIPVYQVNNLEEICQLIIQAFEAGVDFQESADSFLLMLCLHHAYQGDYKLFLESGAVKYLEGHGFRFEVKKRDGVKRLEELLPAVSSGKNIKRTLAAMPEEETTEANAGQFLSFASLFLPKLVVGEKACLEKVQRQIQVHAEQGLIQYPTAWQSVGHMMVIFRLMRTNFLIKFLLIHQGMHMVAGHDANDAVISNSVAQARFSGLLIVKTVLDHILQKTERGVRLHPLARTAKVKNEVNSFKAALSSLAKHGEYAPFARLLNLSGVNNLEHGLFPQLSAIALGVATAHGSTLAGVNVGEQYQQLREAATEAEKQLQQYAESRELDHLG
binding result: binds

Source: publication PMC4500542 (Cell reports, 2015)
